Laboratory results reported in the supplement of paper PMC10567573.

B1: FBF1 (parent)
chain: YQRPQDSEDMWGDEDFTFGAYQPT

Variants of: B1
Assay: protein stability index of a GFP-peptide fusion (GPS, HEK-293T) (PSI 1-6); higher = more stable
Conditions: c terminus: a fixed tail appended
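Further: lentivirally expressed fusions sorted by FACS into six bins by GFP to DsRed ratio, PSI derived from sequencing read proportions per bin multiplied by bin number.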

Variant	protein stability index
YQRPQDSEDMWGDEDFTFAAYQPT [G19A]	2.59
YQRPQDSEDMWGDEDFTFQAYQPT [G19Q]	2.78
YQRPQDSEDMWGDEDFTFTAYQPT [G19T]	2.6
YQRPQDSEDMWGDEDFTFNAYQPT [G19N]	3.1
YQRPQDSEDMWGDEDFTFYAYQPT [G19Y]	2.35
YQRPQDSEDMWGDEDFTFIAYQPT [G19I]	2.64
YQRPQDSEDMWGDEDFTFMAYQPT [G19M]	2.88
YQRPQDSEDMWGDEDFTFVAYQPT [G19V]	2.8
YQRPQDSEDMWGDEDFTFKAYQPT [G19K]	2.51
YQRPQDSEDMWGDEDFTFRAYQPT [G19R]	2.47
YQRPQDSEDMWGDEDFTFDAYQPT [G19D]	3.49
YQRPQDSEDMWGDEDFTFLAYQPT [G19L]	2.33
YQRPQDSEDMWGDEDFTFFAYQPT [G19F]	2.56
YQRPQDSEDMWGDEDFTFCAYQPT [G19C]	2.53
YQRPQDSEDMWGDEDFTFWAYQPT [G19W]	1.84
YQRPQDSEDMWGDEDFTFHAYQPT [G19H]	2.67
YQRPQDSEDMWGDEDFTFPAYQPT [G19P]	2.77
YQRPQDSEDMWGDEDFTFEAYQPT [G19E]	3.76
YQRPQDSEDMWGDEDFTFSAYQPT [G19S]	3.18
YQRPQDSEDMWGDEDFTFGHYQPT [A20H]	2.95
YQRPQDSEDMWGDEDFTFGNYQPT [A20N]	2.9
YQRPQDSEDMWGDEDFTFGRYQPT [A20R]	2.18
YQRPQDSEDMWGDEDFTFGGYQPT [A20G]	2.91
YQRPQDSEDMWGDEDFTFGDYQPT [A20D]	3.02

Variant	protein stability index
YQRPQDSEDMWGDEDFTFGLYQPT [A20L]	2.76
YQRPQDSEDMWGDEDFTFGEYQPT [A20E]	3.29
YQRPQDSEDMWGDEDFTFGKYQPT [A20K]	2.94
YQRPQDSEDMWGDEDFTFGIYQPT [A20I]	2.11
YQRPQDSEDMWGDEDFTFGCYQPT [A20C]	2.18
YQRPQDSEDMWGDEDFTFGSYQPT [A20S]	2.69
YQRPQDSEDMWGDEDFTFGFYQPT [A20F]	2.38
YQRPQDSEDMWGDEDFTFGQYQPT [A20Q]	2.97
YQRPQDSEDMWGDEDFTFGMYQPT [A20M]	2.62
YQRPQDSEDMWGDEDFTFGPYQPT [A20P]	2.92
YQRPQDSEDMWFDEDFTFGAYQPT [G12F]	2.41
YQRPQDSEDMWEDEDFTFGAYQPT [G12E]	3.71
YQRPQDSEDMWKDEDFTFGAYQPT [G12K]	2.37
YQRPQDSEDMWNDEDFTFGAYQPT [G12N]	3.17
YQRPQDSEDMWRDEDFTFGAYQPT [G12R]	2.96
YQRPQDSEDMWYDEDFTFGAYQPT [G12Y]	2.55
YQRPQDSEDMWIDEDFTFGAYQPT [G12I]	2.43
YQRPQDSEDMWCDEDFTFGAYQPT [G12C]	2.28
YQRPQDSEDMWADEDFTFGAYQPT [G12A]	2.92
YQRPQDSEDMWSDEDFTFGAYQPT [G12S]	3.13
YQRPQDSEDMWQDEDFTFGAYQPT [G12Q]	3.13
YQRPQDSEDMWMDEDFTFGAYQPT [G12M]	3.12
YQRPQDSEDMWDDEDFTFGAYQPT [G12D]	4.15
YQRPQDSEDMWVDEDFTFGAYQPT [G12V]	2.48

Variant	protein stability index
YQRPQDSEDMWTDEDFTFGAYQPT [G12T]	2.55
YQRPQDSEDMWWDEDFTFGAYQPT [G12W]	2.71
YQRPQDSEDMWHDEDFTFGAYQPT [G12H]	2.85
YQRPQDSEDMWLDEDFTFGAYQPT [G12L]	2.28
YQRPQDSEDMWPDEDFTFGAYQPT [G12P]	3.79
YQRPQDSEDMWGNEDFTFGAYQPT [D13N]	2.07
YQRPQDSEDMWGSEDFTFGAYQPT [D13S]	1.85
YQRPQDSEDMWGLEDFTFGAYQPT [D13L]	2.45
YQRPQDSEDMWGVEDFTFGAYQPT [D13V]	1.8
YQRPQDSEDMWGWEDFTFGAYQPT [D13W]	1.53
YQRPQDSEDMWGKEDFTFGAYQPT [D13K]	2.52
YQRPQDSEDMWGHEDFTFGAYQPT [D13H]	1.76
YQRPQDSEDMWGQEDFTFGAYQPT [D13Q]	1.79
YQRPQDSEDMWGYEDFTFGAYQPT [D13Y]	1.72
YQRPQDSEDMWGIEDFTFGAYQPT [D13I]	2.13
YQRPQDSEDMWGPEDFTFGAYQPT [D13P]	1.73
YQRPQDSEDMWGCEDFTFGAYQPT [D13C]	1.74
YQRPQDSEDMWGEEDFTFGAYQPT [D13E]	3.13
YQRPQDSEDMWGMEDFTFGAYQPT [D13M]	2.32
YQRPQDSEDMWGFEDFTFGAYQPT [D13F]	2.18
YQRPQDSEDMWGTEDFTFGAYQPT [D13T]	1.77
YQRPQDSEDMWGREDFTFGAYQPT [D13R]	2.89
YQRPQDSEDMWGGEDFTFGAYQPT [D13G]	2.28
YQRPQDSEDMWGAEDFTFGAYQPT [D13A]	2.1

Variant	protein stability index
YQRPQDSEDMWGDEDFDFGAYQPT [T17D]	3.37
YQRPQDSEDMWGDEDFSFGAYQPT [T17S]	2.65
YQRPQDSEDMWGDEDFPFGAYQPT [T17P]	2.93
YQRPQDSEDMWGDEDFRFGAYQPT [T17R]	2.68
YQRPQDSEDMWGDEDFNFGAYQPT [T17N]	3.04
YQRPQDSEDMWGDEDFAFGAYQPT [T17A]	3.46
YQRPQDSEDMWGDEDFMFGAYQPT [T17M]	2.59
YQRPQDSEDMWGDEDFKFGAYQPT [T17K]	2.68
YQRPQDSEDMWGDEDFYFGAYQPT [T17Y]	2.1
YQRPQDSEDMWGDEDFHFGAYQPT [T17H]	2.86
YQRPQDSEDMWGDEDFFFGAYQPT [T17F]	2.53
YQRPQDSEDMWGDEDFCFGAYQPT [T17C]	2.65
YQRPQDSEDMWGDEDFLFGAYQPT [T17L]	2.31
YQRPQDSEDMWGDEDFIFGAYQPT [T17I]	2.36
YQRPQDSEDMWGDEDFEFGAYQPT [T17E]	3.04
YQRPQDSEDMWGDEDFWFGAYQPT [T17W]	1.84
YQRPQDSEDMWGDEDFVFGAYQPT [T17V]	3.07
YQRPQDSEDMWGDEDFQFGAYQPT [T17Q]	3.44
YQRPQDSEDMWGDEDFGFGAYQPT [T17G]	3.01
YQRPQDSEDMIGDEDFTFGAYQPT [W11I]	4.19
YQRPQDSEDMPGDEDFTFGAYQPT [W11P]	4.87
YQRPQDSEDMCGDEDFTFGAYQPT [W11C]	4.55
YQRPQDSEDMSGDEDFTFGAYQPT [W11S]	4.79
YQRPQDSEDMKGDEDFTFGAYQPT [W11K]	4.27

Variant	protein stability index
YQRPQDSEDMYGDEDFTFGAYQPT [W11Y]	3.74
YQRPQDSEDMVGDEDFTFGAYQPT [W11V]	4.25
YQRPQDSEDMLGDEDFTFGAYQPT [W11L]	4.13
YQRPQDSEDMHGDEDFTFGAYQPT [W11H]	4.54
YQRPQDSEDMEGDEDFTFGAYQPT [W11E]	4.5
YQRPQDSEDMTGDEDFTFGAYQPT [W11T]	4.33
YQRPQDSEDMNGDEDFTFGAYQPT [W11N]	4.44
YQRPQDSEDMRGDEDFTFGAYQPT [W11R]	4.43
YQRPQDSEDMMGDEDFTFGAYQPT [W11M]	4.13
YQRPQDSEDMGGDEDFTFGAYQPT [W11G]	4.67
YQRPQDSEDMFGDEDFTFGAYQPT [W11F]	3.83
YQRPQDSEDMDGDEDFTFGAYQPT [W11D]	4.54
YQRPQDSEDMAGDEDFTFGAYQPT [W11A]	4.45
YQRPQDSEDMQGDEDFTFGAYQPT [W11Q]	4.78
YQRPQDSEDMWGDEDFTMGAYQPT [F18M]	3.25
YQRPQDSEDMWGDEDFTQGAYQPT [F18Q]	3.35
YQRPQDSEDMWGDEDFTDGAYQPT [F18D]	3.9
YQRPQDSEDMWGDEDFTVGAYQPT [F18V]	3.8
YQRPQDSEDMWGDEDFTIGAYQPT [F18I]	3.06
YQRPQDSEDMWGDEDFTRGAYQPT [F18R]	3.61
YQRPQDSEDMWGDEDFTEGAYQPT [F18E]	3.62
YQRPQDSEDMWGDEDFTNGAYQPT [F18N]	3.93
YQRPQDSEDMWGDEDFTAGAYQPT [F18A]	3.43
YQRPQDSEDMWGDEDFTWGAYQPT [F18W]	2.53

Variant	protein stability index
YQRPQDSEDMWGDEDFTYGAYQPT [F18Y]	3.02
YQRPQDSEDMWGDEDFTKGAYQPT [F18K]	3.6
YQRPQDSEDMWGDEDFTGGAYQPT [F18G]	3.6
YQRPQDSEDMWGDEDFTPGAYQPT [F18P]	3.62
YQRPQDSEDMWGDEDFTTGAYQPT [F18T]	3.77
YQRPQDSEDMWGDEDFTHGAYQPT [F18H]	3.04
YQRPQDSEDMWGDEDFTCGAYQPT [F18C]	3.19
YQRPQDSEDMWGDEDFTSGAYQPT [F18S]	3.98
YQRPQDSEDMWGDEDFTLGAYQPT [F18L]	2.65
YQRPQDSEDMWGDERFTFGAYQPT [D15R]	2.15
YQRPQDSEDMWGDEKFTFGAYQPT [D15K]	1.73
YQRPQDSEDMWGDEVFTFGAYQPT [D15V]	1.86
YQRPQDSEDMWGDEEFTFGAYQPT [D15E]	2.75
YQRPQDSEDMWGDETFTFGAYQPT [D15T]	2.43
YQRPQDSEDMWGDEMFTFGAYQPT [D15M]	1.9
YQRPQDSEDMWGDEFFTFGAYQPT [D15F]	1.52
YQRPQDSEDMWGDEAFTFGAYQPT [D15A]	2.31
YQRPQDSEDMWGDEWFTFGAYQPT [D15W]	1.78
YQRPQDSEDMWGDEIFTFGAYQPT [D15I]	2.11
YQRPQDSEDMWGDECFTFGAYQPT [D15C]	1.77
YQRPQDSEDMWGDEPFTFGAYQPT [D15P]	2.45
YQRPQDSEDMWGDESFTFGAYQPT [D15S]	2.16
YQRPQDSEDMWGDEYFTFGAYQPT [D15Y]	2.23
YQRPQDSEDMWGDEQFTFGAYQPT [D15Q]	2.41

Variant	protein stability index
YQRPQDSEDMWGDELFTFGAYQPT [D15L]	2.04
YQRPQDSEDMWGDEGFTFGAYQPT [D15G]	2.13
YQRPQDSEDMWGDENFTFGAYQPT [D15N]	2.13
YQRPQDSEDMWGDEHFTFGAYQPT [D15H]	2.05
YQRPQDSEDWWGDEDFTFGAYQPT [M10W]	2.81
YQRPQDSEDYWGDEDFTFGAYQPT [M10Y]	3.11
YQRPQDSEDMWGDEDPTFGAYQPT [F16P]	2.71
YQRPQDSEDMWGDEDVTFGAYQPT [F16V]	2.88
YQRPQDSEDMWGDEDYTFGAYQPT [F16Y]	2.83
YQRPQDSEDMWGDEDHTFGAYQPT [F16H]	3
YQRPQDSEDMWGDEDSTFGAYQPT [F16S]	3.29
YQRPQDSEDMWGDEDLTFGAYQPT [F16L]	2.71
YQRPQDSEDMWGDEDRTFGAYQPT [F16R]	2.73
YQRPQDSEDMWGDEDATFGAYQPT [F16A]	2.9
YQRPQDSEDMWGDEDITFGAYQPT [F16I]	3.14
YQRPQDSEDMWGDEDDTFGAYQPT [F16D]	3.48
YQRPQDSEDMWGDEDNTFGAYQPT [F16N]	3.61
YQRPQDSEDMWGDEDTTFGAYQPT [F16T]	2.8
YQRPQDSEDMWGDEDGTFGAYQPT [F16G]	3.23
YQRPQDSEDMWGDEDMTFGAYQPT [F16M]	3.17
YQRPQDSEDMWGDEDETFGAYQPT [F16E]	3.73
YQRPQDSEDMWGDEDWTFGAYQPT [F16W]	2.73
YQRPQDSEDMWGDEDCTFGAYQPT [F16C]	2.85
YQRPQDSEDMWGDEDKTFGAYQPT [F16K]	2.87

Variant	protein stability index
YQRPQDSEDMWGDEDQTFGAYQPT [F16Q]	3.4
YQRPQDSEDMWGDKDFTFGAYQPT [E14K]	1.46
YQRPQDSEDMWGDFDFTFGAYQPT [E14F]	1.78
YQRPQDSEDMWGDIDFTFGAYQPT [E14I]	1.82
YQRPQDSEDMWGDQDFTFGAYQPT [E14Q]	1.94
YQRPQDSEDMWGDADFTFGAYQPT [E14A]	1.67
YQRPQDSEDMWGDMDFTFGAYQPT [E14M]	1.26
YQRPQDSEDMWGDLDFTFGAYQPT [E14L]	1.66
YQRPQDSEDMWGDGDFTFGAYQPT [E14G]	1.88
YQRPQDSEDMWGDDDFTFGAYQPT [E14D]	2.58
YQRPQDSEDMWGDCDFTFGAYQPT [E14C]	2.11
YQRPQDSEDMWGDRDFTFGAYQPT [E14R]	2.05
YQRPQDSEDMWGDWDFTFGAYQPT [E14W]	2.21
YQRPQDSEDMWGDTDFTFGAYQPT [E14T]	2.15
YQRPQDSEDMWGDYDFTFGAYQPT [E14Y]	2.27
YQRPQDSEDMWGDSDFTFGAYQPT [E14S]	2.43
YQRPQDSEDMWGDNDFTFGAYQPT [E14N]	1.8
YQRPQDSEDMWGDPDFTFGAYQPT [E14P]	2.03
YQRPQDSEDMWGDVDFTFGAYQPT [E14V]	2.36
YQRPQDSEDMWGDHDFTFGAYQPT [E14H]	2.84
